Molecular target: T1, His-tagged COOH-terminal fragment of Digitor containing the six TQT motifs (amino acids 256 to 388) (Drosophila, UniProt Q9VZU1 256-388)
T1 construct: Digitor/dASCIZ (CG14962), Drosophila, residues 256-388, holds the six TQT motifs; full length is aa 1-388; Purification is not described; 10 ug amounts are stated; also called Digitor-His; His-Digitor; source: expressed in BL21 cells (pET28a)
T1 sequence (looked up): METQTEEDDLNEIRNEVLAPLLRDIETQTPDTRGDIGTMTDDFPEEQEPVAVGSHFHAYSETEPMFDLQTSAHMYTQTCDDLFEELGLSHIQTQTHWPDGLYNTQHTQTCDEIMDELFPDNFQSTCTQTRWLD
Experiment: pull-down; MBP-Cut up or MBP alone bound to amylose resin, incubated with His-tagged Digitor in 1X PBS pH 7.4, 4 hr, 4°C; 5 washes; immunoblot with anti-His antibody
Conditions: both partners purified

binding result: binds
B1: full length Cut up MBP fusion protein (amino acids 1-89) (natural protein, Drosophila, UniProt Q24117 1-89, looked up)
chain: MSDRKAVIKNADMSEEMQQDAVDCATQALEKYNIEKDIAAYIKKEFDKKYNPTWHCIVGRNFGSYVTHETRHFIYFYLGQVAILLFKSG
notes: Cut up, the Dynein light chain (DYNLL1 homolog) of Drosophila, full-length cDNA encoding amino acids 1-89; Purification is not described; 10 ug amounts are stated; also called MBP-Cut-up; MBP-Cut up; source: expressed in BL21 cells (pMAL-C2X)

From article PMC5115829, “Digitor/dASCIZ Has Multiple Roles in Drosophila Development” (PLoS ONE, 2016)
